One block for each substance: values may come before it.
Key:
[1] = tested on: T1, Factor VII (wild-type, single-chain zymogen)
T1 sequence: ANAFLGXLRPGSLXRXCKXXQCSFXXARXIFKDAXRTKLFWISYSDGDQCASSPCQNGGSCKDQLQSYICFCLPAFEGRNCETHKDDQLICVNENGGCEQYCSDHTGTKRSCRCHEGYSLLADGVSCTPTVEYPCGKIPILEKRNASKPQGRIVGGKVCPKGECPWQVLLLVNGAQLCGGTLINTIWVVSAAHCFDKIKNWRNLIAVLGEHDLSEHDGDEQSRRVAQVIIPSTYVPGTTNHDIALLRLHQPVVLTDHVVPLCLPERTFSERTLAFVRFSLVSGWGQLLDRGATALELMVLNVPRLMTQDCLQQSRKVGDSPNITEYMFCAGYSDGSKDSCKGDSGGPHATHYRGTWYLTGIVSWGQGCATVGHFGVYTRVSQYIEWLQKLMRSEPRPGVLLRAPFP

[2] = molecular target: FVII_XHC: FVII with FX activation peptide inserted in the end of FVII heavy chain; test: cell-based or functional assay

Substance: Factor IXa
- activation of FVII (cleavage to two chains) on reducing SDS-PAGE; 250 nM FIXa for 20 h [1]: completely activated under all described conditions

- time to complete activation, reducing SDS-PAGE, 80 nM FIXa [2]: 4 h
Substance: Factor IXa (from UniProt P00740 47-461) (enzyme)

Substance: Factor XIa
- activation of FVII (cleavage to two chains) on reducing SDS-PAGE; 75 nM FXIa for 2.5 h [1]: completely activated under all described conditions

Substance: Factor Xa
- activation of FVII (cleavage to two chains) on reducing SDS-PAGE; 100 nM FXa for 2 h [1]: completely activated under all described conditions

Reference: patent US20120321607A1
